Drawing on a protein production outcome set (Wang et al. 2014), this text covers protein production for 16 sequences.

This data set can be described thus: label from the status in PepcDB records.

Consider “MGYSRSREIRRWEMRKMKAAGLSVEEAYSDEEGGLVPDLVYKESSSEFLGNKVFDPVLRNKIEIEKPGTEISAVAKRGSVFLSVHPRSYVAPSASGEVDREVSQRLPIESFRDDLMEFVGKHRVIVLVGETGSGKSTQVPKYLYQEGYGDKGIIGCTQPRRAAAISLASTLKREMGCAVGYSIRFDSTTTQDTKIRYMTEGILLQELLADKMLRRYSVVILDEAHERTTNLDISMGLLKLALKERDDLRIIIMSATIEAQKLCNYFGCPAFNIEGRSYPVETRYLSVNVDDYVEWTVKKILYIHENCGEGDILVFVTGRDDVEGVVGIVNHCIRNKCFGEGSEGGRGLKVLPFYSQLPEEMQNRVFQAEKDVRKCIVSTNVAETSLTIPNIGYVIDTGLQKISVYSYDTGESLVTVPISRANADQRTGRAGRTRPGVCYRMYTADTYENDMLPSPVPEIQRTNIHNVVLLLLKHGVHDILGFDFVDRPSEELIQGALLGLHRLGAVCSRGLLTKVGKEMSELRLDPPLARMVLGAAGYGAVNEIASIASMLSVHEVFHRDFDKSSPLCHQGCDFLTLLNIFNAFIRQKNRSEWCNKMKVSEHALKRATETKRAVLMSLREMGVPISSTRSLDKIQRCIISSVHYNVARRRGKGYVCLSNFRACMVHPSSVLADSYSQYIIFYKHLSTRAEYMYCCSNISPQVILEEAGCYYRDRNGVFNIQKHPVIEDGLDREHNPFGSACSLTGARMPGKIALDENLYDRFEKWNESEESDEEPPKKIRRTRI”, for which the protein production result is on record as “failed”.

In the case of “MHAKFLDTLDWGILIAYFLILIAIGIWASSKRKKGSSLFLAEHSLRWHHIGFSMWGTNVGPSMLIASASAGFTTGIVSGNYAWYAFVFICLLAFVFAPRYLGSRVSTLPEFMGKRFGQSTRNILAWYTIVTILISWLALTLFAGGVLIRQVFDIPMWQSALILLIISAFFTMLGGLKAVAYTNVYQMILLILVSAALAIVGIYKVGGISALTDAVPADFWNLFRPNDDTAFPWLPIILGYPVMGVWFWCTDQSMVQPVLAAKSLKEGQLGTNFTGWLKILDVPLYILPGIICLALFPQLENPDEAYMTMVTHLFPVGMVGLVLAVLTAALVSTIGSALNALSTVFTMDIYVKKIRPQAKQKEIIRVGQVVTVAGALISVIITIAIDSIHGLNLFNVFQSVLGFIAPPMAAVFLFGVFWKRTTTLAANAALTVGTVFSIGVGVLYLWVFPADQYSAWPHFMLLSFYLFVIIGIGMVVVGLLDKTPQTAILNMEKIEEKPARIVLILWGLLIVTMIGLYIFFNGH”, the protein production entry is given as “failed”.

Take “MHALIVVAHHHPRSLTHALAARIAEGVVRAGHSAETADLAAEGFEPRFGLADHAVHRGQASPPADVLAEQARIDRADTLVLVYPIYWWSMPALLKGWIDRVFSNGWAFDYSIGGDLRKKLQRLRVVLVGVGGADAGTFERHGYAGAMRTQIDHGIFDYCGARVVRSELLLESESADPIRHLDQALHIGSQLFAARGAQGAAQAQPLEA”: the protein production result is given as “failed”.

On to “MHATQAILQGLRPVWTRPARLILTTPMSTTPPVPSPLQRGTLKQRRNTLPKRSNRHRDGRVYYANLAATMIARDNLRAAQIILAESHRRHPAFCDTRLMEAGVHLSLGRSDAAEAALRICHEAEPDEQRAVSGLVEIALERADATTARQLLEDQPQTPTFDLARARIALFNGDPSAARTFLDAHPAEGSTTVLAAFADAMEGDLDTAIARLNAQANRTDAALALAALQAAAGVVPDAAPSSPTASFFTALNPAANDDRRAALNAAEGFEQGFTAAGLDAVPQGSPDLALGVVFRLWGFHGAALERLVAASNDDPENPLAAYFVAVAHLKLGQNAQAEAALAKARTAAPSFFAANIAAAELRIRAGAPQEALAMLKAAVAVREDPGALMRIGLIEESFGDDDTARAAYERFVAVQPGSYIGYNQLAWHLARRGIELDRAQELAERANTLQPENASVLDTLGWIAFLRGDGAGAIERLRAAHEISQGDIPIISFHLAQAELKYGETPRGIALLQDLTAAGPAAYPFSQEATDILAKALQ”, for which the protein production result is on record as “failed”.

Turning to “MHEKTKFRLHSHDVPYGSGSGQQSVTGFPGVVDSNSYWIVKPVPGTTEKQGDAVKSGATIRLQHMKTRKWLHSHLHASPISGNLEVSCFGDDTNSDTGDHWKLIIEGSGKTWKQDQRVRLQHIDTSGYLHSHDKKYQRIAGGQQEVCGIREKKADNIWLAAEGVYLPLNESSK”, the protein production entry is “not failed”.

Turning to “MHERTGLWRGITAVGALLLAVAIMAGTIMETYRTSLDAFVGTRSQRTVTDQSADNGDSWTYKSEYKTAKEAYEGFKKTAMDEAQETYVLLKNSDNALPLSKSAKITMFGVRSYAPVYGSSGGSVTDGNSTVEITKAFEEEGFQINPSMLKAYQNYFKDKKWTTPQFGGGILPEYEDITKYNDPCELSLDELAKLNPEYKSQYGEYQDAAIVVVGRPAGENGDGYYPGQDGLADGVNTVTGNILSLSDEEMALVNEAKANFSKVIVLVNSTNPMEIANLQDDPDIDAIMWIGYPGAYGFYGVADVLNGTVSPSAHLGDVMAKNSAVAPAMSNYGNVAWKNASDFSEDAAVNSYLMEAEGIYTGYRYYETRYADIVMGNGGDTASAGTYAASDGTVATADGTWDYANEVVYPFGYGLSYTTFEQKLDGVEIKGDKKTAVATVTVKNTGSVEGKSVIQLYASVPYTDYDKKNGVGKSAIQLMDFEKTNALKPGDSQTITMTVDLSNLASYDSNKAKTYIVDPGDYYFSIGDDVHDALNNVLAAQGYSESDGMTAAGDKTKTYTWSWDGGVDADTFATSSTGTKITNQLSDGKYATDYNAFDKGAVTYLTRSDWNGTFPKTYSGISANEEVSKLLNNDFIDLKSDGDVSDITIGDTSSSLTLNDMKGASYDDERWDELTSKVSVKEFMHFAETAFHAIGAIDSVGLQEMTTDDGPGGSDSHYLNEGQYQGKAYADADDYADKSSRVAPSPTNLAYSWNKELAYRNGEVILGESSLVFRLPIMIAPAMNLHRHAYNSRGVEYYSEDPILSGYIGSAVVQGAQSKGVLVNVKHLAFNDQEINRSGIATFMSEQKAREMELRNFQQAFEANGKPASFESDDAKKNTYTQGALGVMTSYNRIGAVASSANAAVMVNILRDEWGFTGYNVTDFTSVSPHAAPKESVLAGTSAFCGFGNQGVKYWDAATLSKDRDMLLAIKQNMHYSLWAIANSNAMNGVNSSTHTENVMTWWRAVYLGVIAASGVVTLIGLAGYTTTRIRPARNADNGPTAASK”, the protein production result is reported as “failed”.

Regarding “MHFRLSFISIIYRLLGILLASAFVGWLFDYVLLVMLATSIFLLVWHYHHLFKLINWIWQSKALSPPQAKGVWGYLYDGLYRQVKQQRNKQKQLNEKIRRFRDGAEALPDAALMLSEELTIEWGNKKAQRLLGVRWPDDFGQRIDNLLRAPEFSDYLAHENFEYPCLLVSPIHSDVQLEIRLMAYGSEHVLLLARDISNLQRLEDMRRDFVANVSHELKTPLTVVRGYVEMIQASPEAFDPHWQKAFQTIEGQVSRMDRLVEQLLNLAKVENNSDDEKQCVNMAQLIRTLVDEVTWLNQEKQHQIMLDISTDVSVLGFETELKSACANLLSNAIAYTPPKGCIEVSWRLMGNKAIFSVKDNGDGIKPEHVNRLTERFYRIDRSRSRDTGGSGLGLAIVKHVLHHHQAELIINSHWGQGSEFSIYFDPSTLSNPSR”, the protein production entry is “failed”.

“MHGTRRTRKDSPCMPAIHRAPLLRRREFRHEDRNGSLAPALDLIAWSRSAFGWLAHQPYLLLSLTSLFWAGNIVLGRAVAGHVPPVTLSCARWVGAMLLLLPFAWPHLRHDWRKLRAQWKLMIVLSATGFAINNALSYWGLQYTQALNALLMQSSGPLFVALWSLLLFGVRLTWMQATGIALSLLGVLTIILRGDFAALAGIELNRGDLMVAGALCAFGLYSALMPKRPATHPLSLIVVTTGCGALLLLPFSAWEYASGVRPSADWISVATLAYVVIFPSMLAYLCFNRGVALIGPNRSAPFLHLMPVFGSVMAIVLLGEKPELFHLAGYAMVVAGVFIAARR”: the protein production entry is given as “failed”.

For the sequence “MHIAILGCTSQIAKDLIRSIYVYSQHDLILFGRTPQQTQSWLAENGITSRCSVNQYEEYPNIDHDVVINFVGIGDPSKAAAMGGSIFDITLHYDELVLNELKKYPDRRYLFLSSGAAYGSSFLEPADADTPSTININNLLPQEYYSVAKLHAECRHRSLKEYAIVDLRVFNVFSRTQDLEARFFITDIVRSIHSGTELITSSDMIYRDFMHPKDFYQLVERVLNAPPMNISLDCYSRQPVDKTTLLDEMKKTFGLSYRVKESNMSINATGIKPCYYSKNKRAAEFGYLPEYSSLETIIEETNAILGLQKTVLEHHHHHH”, the protein production entry is listed as “not failed”.

Consider “MHILYFLFPKVTFNSFSTPIFFTLISFYSLVTFFPLLSLFIRTSIPSNLINMIIQNSIKGVFVHLDVKMRFFLDFYFLNSLICYSNYIVPFLLAHTLNLITPSVLTTVECDF”, for which the protein production entry is recorded as “failed”.

“MHISFIIPAFNEEQLIEPCLRSITDAVAANRSYGYTSEIIVVDNNSTDATAQLAKQAGAQVVFEPVNHIARARTAGAGAARGDWLVFMDADCLLNAGLVGDIFELIRQGRHIGAGSTLYMPGQPWWAEMLLRIWTFLSVQLGWAAGALIVCNAAAFREVGGFDLTLYAAEEIDLSQKLKKYGRKRKLKFAILNAHPLETSSRKTQLYSGWEIVGQFLRLVLSPLGTLRNKKKLPMWYDGRRLEHHHHHH”: the protein production entry is recorded as “not failed”.

For “MHKDELLELHEQMVTIMEYFRDDMDSVDPDLFDAYQELDVRPSDVHKSKSEHKHAVFVLGNSLATAMSEDEFSDAGRVSKRMKELAEDAERKLLEHHHHHH”, the protein production entry was “not failed”.

Regarding “MHKKTVILIIFAILGGVMGAAYFTRAWLVMGITSRLVNNIIVNILLGAIIFLILGSLFAGVLVRLINRIEAYLNRQNPMTLIFGSLLTIVGLALALLISQFLFRVPSFFIGTVIPWILMILFGYFGYRIGARLSKIRLEEWRKLFQSRSKKAEEETDKQVLDKETEPNFHHYKILDTNILIDGRIYDLAKTGFLEGTLLVPNFVLYELQYIADSSDSVKRVRGRRGLDILNKLQNEHIMPIEMYEGDFEDIPEVDSKLIALAKQNGGVIVTNDYNLNKVIQFQNVQVLNINSLANALKPRVIPGENLHVMVVKNGTERQQGVAYLDDGTMVVVEDGRYFINKQLDVVVTSAIQTDAGRMIFAKPLHSNKNIEEQANAGKEGKGSNSAKPTKRSR”, the protein production result was “failed”.

As for “MHLATLASGSSGNSIVVGHEKRNFLVDCGISLKATLHNLAILDIAPSEIEGIFITHEHSDHIKGVGAVARKLKIPIYASAKIWDELNPSIGKLKDEQRVVVKDAFTCAGLRVRVFPTSHDSQESFGVRVEVEQPVKGRSRAIGIATDTGIVTEEMHQALKGCDALVVEANHDREMLWQGGYPWYLKKRISGNYGHLENSQLAEGLLQWIEGNTQRIVLAHLSDENNTPETALSTILRILKESRVAKENRDLRLRVAPRYTPHELIVLEEY”, the protein production entry is given as “failed”.

Consider “MHLKEILAQFSFFTAIPVKSSASLEEIAESSYISPIIVGISLGLIESVAYLILYRILGELTGIVLLGIIELLRGFNHLDGLLDLGDALMIRGNREKKIKALKDVEVGSGGIGLLLVYLSIQIVALLKLDFSLYTIFYLISSNVLSMSLSLYILSTISPIPESNLGRIFHDKLKGKSTILLLELIPFISLYNVIVFIIFYMIMYKICGSLGGSSGDIAGASITLSFPLFLITDEITNLNYSLLSILCYLFSHLH”, for which the protein production entry is reported as “failed”.

On to “MHLPPKLALTTGVLLVALPLATPAWGQPPTPASPLVQQLNNGNWLDPKEAETLRDELYYQRAIHAYMTMLPALNVIGMRDGSEKVFGAGYNVLPVWKERMDARTMVPTPNADVIYSMSYLDLKKTGPLVVKAPANVIGMFTDFFQRTLTDVGAIGPDRARGGLYLILPPDYDGHVPSSYFVVKSPTYNVFLFFRTIMGQGKGKPDPAPAVKAAETTRVYPLWAEEKDIKPMEFPDGSGKHINMMYPVDQEYWTKLKEFVDYEPVSAIDPELRGVLASIGIVKGQPFKPTAREQELLKRAVETAPKMILAMRQLGREDKRHLYYKDRQWERAWAGATAEWMQDSYLDVNQRATFFQIAYSSAPAMVMRTTGAGSKYPFTARDANGEFLNGSATYKLRMPPDAPAALFWAVTAYNVTDGTMPETDQLMPSTNGYYDIPKQKDGSTEIWFGPQKPADVADAAFIKTIPNRNFLVTLRLYGAEDAFYDQTWKPDDVVKVKLEHHHHHH”, for which the protein production entry is given as “not failed”.
